Data published in patent US6103692.

Molecular target: endogenous Ras (COS cells)

For “Myc-Raf (84-87A) (from UniProt P04049) (enzyme)”, the EGF or PMA-stimulated activation of Raf kinase in COS cells was > 85%.
